In paper PMC7470827:
pKd: −log10 of the molar value.

Tests used:
[1] = target: MBP-tagged Tlg2 SNARE motif (residues 258-327) (Chaetomium thermophilum); experiment: AUC; sedimentation velocity, 42,000 rpm, 20°C, gel filtration buffer; MBP-Tlg2(258-327) 9 µM, Tlg2(79-200) 72 µM, Tlg2(258-327) 168 µM; c(S) by SEDFIT
[2] = target: Untagged Tlg2 SNARE motif (residues 258-327) (Chaetomium thermophilum); experiment: as above
[3] = target: Syntaxin-16 N-peptide (UniProt Q8BVI5); details: cited from earlier work
Chain of UniProt Q8BVI5 (Q8BVI5 1-27): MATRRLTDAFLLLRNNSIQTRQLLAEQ

In the case of “MBP-tagged Tlg2 SNARE motif (residues 258-327) (domain or fragment)”, the stoichiometry N [1] was 4.

With “Untagged Tlg2 SNARE motif (residues 258-327) (domain or fragment)” the stoichiometry N [2] was 4.

For Vps45 (from UniProt P97390), the pKd [3] is given as 7.57.
